Experimental data as given in article PMC4730607, “DNA-binding sequence specificity of DUX4”.

B1: Pitx1-25 (dsDNA)
DNA 1: GGCAGTCTTCTAATTAGTAGTCGGC
DNA 2: GCCGACTACTAATTAGAAGACTGCC
B2: DUX4(half) (dsDNA)
DNA 1: GGCAGTCCAGCGTAATCAAGTCGGC
DNA 2: GCCGACTTGATTACGCTGGACTGCC
B3: MALR (dsDNA)
DNA 1: GGCAGTCTAATTGAATCAAGTCGGC
DNA 2: GCCGACTTGATTCAATTAGACTGCC
B4: SELEX4 (dsDNA)
DNA 1: GGCAGTCTAATGTTTTATAGTCGGC
DNA 2: GCCGACTATAAAACATTAGACTGCC
B5: DUX4(TT) (dsDNA)
DNA 1: GGCAGTCTAATTTAATCAAGTCGGC
DNA 2: GCCGACTTGATTAAATTAGACTGCC
B6: DUX4(TC) (dsDNA)
DNA 1: GGCAGTCTAATTCAATCAAGTCGGC
DNA 2: GCCGACTTGATTGAATTAGACTGCC
B7: DUX4(mut) (dsDNA)
DNA 1: GGCAGTCGTGAATAATCAAGTCGGC
DNA 2: GCCGACTTGATTATTCACGACTGCC
B8: DUX4(CC) (dsDNA)
DNA 1: GGCAGTCTAATCCAATCAAGTCGGC
DNA 2: GCCGACTTGATTGGATTAGACTGCC
B9: SELEX2 (dsDNA)
DNA 1: GGCAGTCTAATTCAATCCAGTCGGC
DNA 2: GCCGACTGGATTGAATTAGACTGCC

Biological target: T1, DUX4 DNA-binding domain (DUX4-HD, both homeodomains) (UniProt Q9UBX2 19-152)
T1 sequence (Q9UBX2 19-152): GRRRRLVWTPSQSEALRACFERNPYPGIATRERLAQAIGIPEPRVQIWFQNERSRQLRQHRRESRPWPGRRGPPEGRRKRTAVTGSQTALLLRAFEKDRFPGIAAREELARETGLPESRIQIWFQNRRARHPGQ
Assay: EMSA; excess protein; Direct EMSA: 10 uL 100 uM probe + 20 uL 250 uM protein (protein stock in 500 mM NaCl, 20 mM Tris-Cl pH 7.4), 1 h on ice, 3% agarose, EtBr; competition: 10 uL 100 uM competitor, 2 uL 125 uM protein (50% glycerol, 250 mM NaCl, 10 mM Tris-Cl pH 7.4), 2 uL 100 uM FAM-CT, 30 uL total, 1 h on ice
Settings: protein: recombinant; tags: N-terminal His6 removed by TEV (first construct); His-SUMO fusion (later construct); blunt

Does B1 bind?
Result: no binding

Does B2 bind?
Result: no binding

Does B3 bind?
Result: binds

Does B4 bind?
Result: no binding

Biological target: T1, DUX4 DNA-binding domain (DUX4-HD, both …)
Assay: competition; vs FAM-CT; Direct EMSA: 10 uL 100 uM probe + 20 uL 250 uM protein (protein stock in 500 mM NaCl, 20 mM Tris-Cl pH 7.4), 1 h on ice, 3% agarose, EtBr; competition: 10 uL 100 uM competitor, 2 uL 125 uM protein (50% glycerol, 250 mM NaCl, 10 mM Tris-Cl pH 7.4), 2 uL 100 uM FAM-CT, 30 uL total, 1 h on ice
Settings: protein: recombinant; tags: N-terminal His6 removed by TEV (first construct); His-SUMO fusion (later construct); blunt

Does B5 bind?
Result: binds

Does B6 bind?
Result: binds

Does B7 bind?
Result: no binding

Does B8 bind?
Result: binds

Biological target: T1, DUX4 DNA-binding domain (DUX4-HD, both …)
Assay: competition; vs FAM-CT; CT competed best; Direct EMSA: 10 uL 100 uM probe + 20 uL 250 uM protein (protein stock in 500 mM NaCl, 20 mM Tris-Cl pH 7.4), 1 h on ice, 3% agarose, EtBr; competition: 10 uL 100 uM competitor, 2 uL 125 uM protein (50% glycerol, 250 mM NaCl, 10 mM Tris-Cl pH 7.4), 2 uL 100 uM FAM-CT, 30 uL total, 1 h on ice
Settings: protein: recombinant; tags: N-terminal His6 removed by TEV (first construct); His-SUMO fusion (later construct); blunt

Does B9 bind?
Result: binds
